The source of these data is patent publication US12295987B2, “Method of using a GIP/GLP1 co-agonist for diabetes” (Eli Lilly and Company, priority 2018, dated 2025).

Numbered stars: 1 amine (or outer) side, 2 acyl side, 3 side chain; on linkers, the order of the positions; unused ones are H or OH. Square brackets hold non-standard residues; d marks the D form. Side chains are listed from the residue outwards. Ends that are not written are not given here. * marks the point of attachment. C20 diacid = O=C(O)CCCCCCCCCCCCCCCCCCC(=O)*; γGlu = O=C(O)[C@H](CCC(=O)[*:2])N[*:1]; αMeL = CC(C)C[C@](C)(N)C(=O)O; αMeK = C[C@](N)(CCCCN)C(=O)O; AEEA = NCCOCCOCC(=O)O; Aib = CC(C)(N)C(=O)O

This experiment addresses T1, human gastric inhibitory peptide receptor (hGIPR) (Homo sapiens, UniProt P48546).
T1 construct: expressed in transfected cells; host or cells: HEK293
T1 sequence (P48546 22-466): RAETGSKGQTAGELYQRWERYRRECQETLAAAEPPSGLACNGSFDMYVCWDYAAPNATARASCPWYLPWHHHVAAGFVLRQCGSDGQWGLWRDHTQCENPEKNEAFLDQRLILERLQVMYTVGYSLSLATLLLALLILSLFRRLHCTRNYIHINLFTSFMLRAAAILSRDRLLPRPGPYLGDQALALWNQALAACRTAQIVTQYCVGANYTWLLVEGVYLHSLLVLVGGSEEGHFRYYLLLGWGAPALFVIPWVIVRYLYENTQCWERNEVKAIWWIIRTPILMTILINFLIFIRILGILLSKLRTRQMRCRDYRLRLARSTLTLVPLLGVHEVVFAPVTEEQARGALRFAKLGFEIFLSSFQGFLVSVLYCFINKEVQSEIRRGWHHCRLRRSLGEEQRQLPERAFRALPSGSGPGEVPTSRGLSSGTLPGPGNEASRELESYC
Put plainly: cAMP pharmacological functional assay in presence of 0.1% casein, hGIPR. The format is cell-based. The note with it: ratio of hGIPR to hGLP1R cAMP EC50 ratios.

Turning to “Y-Aib-EGTFTSDY-(D-Ser)-ILLDKK((2-[2-(2-Amino-ethoxy)-ethoxy]-acetyl)2-(γGlu)-CO—(CH2)18—CO2H)AQ-Aib-AFIEYLIEGGPSSGAPPPS-NH2 (YXEGTFTSDYXILLDKKAQXAFIEYLIEGGPSSGAPPPS; Aib, D-Ser, lipidated Lys, C-terminal amide; (2)..(2) Xaa at position 2 is Aib; (11)..(11) Xaa at position 11 is D-Ser; MOD_RES (17)..(17) Lys at position 17 is chemically modified by conjugation of the epsilon-amino group of the Lys side chain with (2-[2-(2-amino-ethoxy)-ethoxy]-acetyl)2-(gamma-Glu)-CO-(CH2)18- CO2H; (20)..(20) Xaa at position 20 is Aib; MOD_RES (39)..(39) Ser at position 39 is amidated) [Peptide 81]”, the “[hGIPR/hGLP1R] EC50 Ratio” value is reported as 5.92.

With “Y-Aib-EGTFTSDY-aMeS-ILLDKK((2-[2-(2-Amino-ethoxy)-ethoxy]-acetyl)2-(γGlu)-CO—(CH2)18—CO2H)AQ-Aib-AFIEYLIEGGPSSGAPPPS-NH2 (YXEGTFTSDYXILLDKKAQXAFIEYLIEGGPSSGAPPPS; Aib, αMeS, lipidated Lys, C-terminal amide; (2)..(2) Xaa at position 2 is Aib; (11)..(11) Xaa at position 11 is alpha-methyl-Ser; MOD_RES (17)..(17) Lys at position 17 is chemically modified by conjugation of the epsilon-amino group of the Lys side chain with (2-[2-(2-amino-ethoxy)-ethoxy]-acetyl)2-(gamma-Glu)-CO-(CH2)18- CO2H; (20)..(20) Xaa at position 20 is Aib; MOD_RES (39)..(39) Ser at position 39 is amidated) [Peptide 68]”, the “[hGIPR/hGLP1R] EC50 Ratio” value is recorded as 4.72.

Turning to “Y-Aib-EGTFTSDYSI-αMeL-LD-Aib-K((2-[2-(2-Amino-ethoxy)-ethoxy]-acetyl)2-(γGlu)-CO—(CH2)18—CO2H)AQ-Aib-AFIEYLIEGGPSSGAPPPS-NH2 (YXEGTFTSDYSIXLDXKAQXAFIEYLIEGGPSSGAPPPS; Aib, αMeL, lipidated Lys, C-terminal amide; (2)..(2) Xaa at position 2 is Aib; (13)..(13) Xaa at position 13 is alpha-methyl-Leu; (16)..(16) Xaa at position 16 is Aib; MOD_RES (17)..(17) Lys at position 17 is chemically modified by conjugation of the epsilon-amino group of the Lys side chain with (2-[2-(2-amino-ethoxy)-ethoxy]-acetyl)2-(gamma-Glu)-CO-(CH2)18- CO2H; (20)..(20) Xaa at position 20 is Aib; MOD_RES (39)..(39) Ser at position 39) [Peptide 60]”, the “[hGIPR/hGLP1R] EC50 Ratio” value was determined as 4.47.

For the substance “Y-Aib-EGTFTSDYSI-αMeL-LDEK((2-[2-(2-Amino-ethoxy)-ethoxy]-acetyl)2-(γGlu)-CO—(CH2)18—CO2H)AQ-Aib-AFIEYLIEGG-NH2 (YXEGTFTSDYSIXLDEKAQXAFIEYLIEGG; Aib, αMeL; K lipidated C20 diacid-γGlu-AEEA2; C-terminal amide; (2)..(2) Xaa at position 2 is Aib; (13)..(13) Xaa at position 13 is alpha-methyl-Leu; MOD_RES (17)..(17) Lys at position 17 is chemically modified by conjugation of the epsilon-amino group of the Lys side chain with (2-[2-(2-amino-ethoxy)-ethoxy]-acetyl)2-(gamma-Glu)-CO-(CH2)18- CO2H; (20)..(20) Xaa at position 20 is Aib; MOD_RES (30)..(30) Gly at position 30 is amidated) [Peptide 63]”, the “[hGIPR/hGLP1R] EC50 Ratio” value worked out at 4.09.

In the case of “Y-Aib-EGTFTSDYSI-αMeL-LDEK((2-[2-(2-Amino-ethoxy)-ethoxy]-acetyl)2-(γGlu)-CO—(CH2)18—CO2H)AQ-Aib-AFIEYLLEGGPSSGAPPPS-NH2 (YXEGTFTSDYSIXLDEKAQXAFIEYLLEGGPSSGAPPPS; Aib, αMeL, lipidated Lys, C-terminal amide; (2)..(2) Xaa at position 2 is Aib; (13)..(13) Xaa at position 13 is alpha-methyl-Leu; MOD_RES (17)..(17) Lys at position 17 is chemically modified by conjugation of the epsilon-amino group of the Lys side chain with (2-[2-(2-amino-ethoxy)-ethoxy]-acetyl)2-(gamma-Glu)-CO-(CH2)18- CO2H; (20)..(20) Xaa at position 20 is Aib; MOD_RES (39)..(39) Ser at position 39 is amidated) [Peptide 66]”, the “[hGIPR/hGLP1R] EC50 Ratio” value came out at 7.41.

With “Y-Aib-EGTFTSDYSI-αMeL-LDEK((2-[2-(2-Amino-ethoxy)-ethoxy]-acetyl)2-(γGlu)-CO—(CH2)18—CO2H)AQ-αMeK-AFIEYLLE-Aib-GPSSGAPPPS-NH2 (Y[Aib]EGTFTSDYSI[αMeL]LDEK([AEEA-AEEA-γGlu-C20 diacid])AQ[αMeK]AFIEYLLE[Aib]GPSSGAPPPS-NH2; N-terminus assumed; SMILES CC[C@H](C)[C@H](NC(=O)[C@H](Cc1ccccc1)NC(=O)[C@H](C)NC(=O)[C@](C)(CCCCN)NC(=O)[C@H](CCC(N)=O)NC(=O)[C@H](C)NC(=O)[C@H](CCCCNC(=O)COCCOCCNC(=O)COCCOCCNC(=O)CC[C@H](NC(=O)CCCCCCCCCCCCCCCCCCC(=O)O)C(=O)O)NC(=O)[C@H](CCC(=O)O)NC(=O)[C@H](CC(=O)O)NC(=O)[C@H](CC(C)C)NC(=O)[C@](C)(CC(C)C)NC(=O)[C@@H](NC(=O)[C@H](CO)NC(=O)[C@H](Cc1ccc(O)cc1)NC(=O)[C@H](CC(=O)O)NC(=O)[C@H](CO)NC(=O)[C@@H](NC(=O)[C@H](Cc1ccccc1)NC(=O)[C@@H](NC(=O)CNC(=O)[C@H](CCC(=O)O)NC(=O)C(C)(C)NC(=O)[C@@H](N)Cc1ccc(O)cc1)[C@@H](C)O)[C@@H](C)O)[C@@H](C)CC)C(=O)N[C@@H](CCC(=O)O)C(=O)N[C@@H](Cc1ccc(O)cc1)C(=O)N[C@@H](CC(C)C)C(=O)N[C@@H](CC(C)C)C(=O)N[C@@H](CCC(=O)O)C(=O)NC(C)(C)C(=O)NCC(=O)N1CCC[C@H]1C(=O)N[C@@H](CO)C(=O)N[C@@H](CO)C(=O)NCC(=O)N[C@@H](C)C(=O)N1CCC[C@H]1C(=O)N1CCC[C@H]1C(=O)N1CCC[C@H]1C(=O)N[C@@H](CO)C(N)=O) [Peptide 22]”, the “[hGIPR/hGLP1R] EC50 Ratio” value stood at 6.41.

For the substance “Y-Aib-EGTFTSDYSI-αMeL-LDEK((2-[2-(2-Amino-ethoxy)-ethoxy]-acetyl)2-(γGlu)-CO—(CH2)18—CO2H)AQ-αMeK-AFIEYLLEGGPSSGAPPPS-NH2 (Y[Aib]EGTFTSDYSI[αMeL]LDEK([AEEA-AEEA-γGlu-C20 diacid])AQ[αMeK]AFIEYLLEGGPSSGAPPPS-NH2; N-terminus assumed; SMILES CC[C@H](C)[C@H](NC(=O)[C@H](Cc1ccccc1)NC(=O)[C@H](C)NC(=O)[C@](C)(CCCCN)NC(=O)[C@H](CCC(N)=O)NC(=O)[C@H](C)NC(=O)[C@H](CCCCNC(=O)COCCOCCNC(=O)COCCOCCNC(=O)CC[C@H](NC(=O)CCCCCCCCCCCCCCCCCCC(=O)O)C(=O)O)NC(=O)[C@H](CCC(=O)O)NC(=O)[C@H](CC(=O)O)NC(=O)[C@H](CC(C)C)NC(=O)[C@](C)(CC(C)C)NC(=O)[C@@H](NC(=O)[C@H](CO)NC(=O)[C@H](Cc1ccc(O)cc1)NC(=O)[C@H](CC(=O)O)NC(=O)[C@H](CO)NC(=O)[C@@H](NC(=O)[C@H](Cc1ccccc1)NC(=O)[C@@H](NC(=O)CNC(=O)[C@H](CCC(=O)O)NC(=O)C(C)(C)NC(=O)[C@@H](N)Cc1ccc(O)cc1)[C@@H](C)O)[C@@H](C)O)[C@@H](C)CC)C(=O)N[C@@H](CCC(=O)O)C(=O)N[C@@H](Cc1ccc(O)cc1)C(=O)N[C@@H](CC(C)C)C(=O)N[C@@H](CC(C)C)C(=O)N[C@@H](CCC(=O)O)C(=O)NCC(=O)NCC(=O)N1CCC[C@H]1C(=O)N[C@@H](CO)C(=O)N[C@@H](CO)C(=O)NCC(=O)N[C@@H](C)C(=O)N1CCC[C@H]1C(=O)N1CCC[C@H]1C(=O)N1CCC[C@H]1C(=O)N[C@@H](CO)C(N)=O) [Peptide 21]”, the “[hGIPR/hGLP1R] EC50 Ratio” value is reported as 4.85.

As to “Y-Aib-EGTFTSDYSI-αMeL-LDKIAQ-Aib-AFIEYLIK((2-[2-(2-Amino-ethoxy)-ethoxy]-acetyl)2-(γGlu)-CO—(CH2)18—CO2H)GG-NH2 (YXEGTFTSDYSIXLDKIAQXAFIEYLIKGG; Aib, αMeL; K lipidated C20 diacid-γGlu-AEEA2; C-terminal amide; (2)..(2) Xaa at position 2 is Aib; (13)..(13) Xaa at position 13 is alpha-methyl-Leu; (20)..(20) Xaa at position 20 is Aib; MOD_RES (28)..(28) Lys at position 28 is chemically modified by conjugation of the epsilon-amino group of the Lys side chain with (2-[2-(2-amino-ethoxy)-ethoxy]-acetyl)2-(gamma-Glu)-CO-(CH2)18- CO2H; MOD_RES (30)..(30) Gly at position 30 is amidated) [Peptide 97]”, the “[hGIPR/hGLP1R] EC50 Ratio” value was 3.56.
